Laboratory results published in patent US20230348892A1.

Target: intC-ZF1-NLS-HA
Experiment: cell-based or functional assay

3xFLAG-NLS-VP64-intN
rec: Reconstitution of split TFs (fitted based on split inteins), model rate constant fitted to reporter data: 0.34 U^-1 h^-1
